We go through two molecules from patent US20250354175, “ATTP MV4-DERIVED SITE-SPECIFIC RECOMBINATION AND ITS USE FOR INTEGRATION OF SEQUENCE OF INTEREST” (INSTITUT NATIONAL DE RECHERCHE POUR L'AGRICULTURE, …, published 2025).

Data set [1] concerns the target T1, mv4Int (369 aa integrase) (Lactobacillus delbrueckii bacteriophage …).
T1 chain: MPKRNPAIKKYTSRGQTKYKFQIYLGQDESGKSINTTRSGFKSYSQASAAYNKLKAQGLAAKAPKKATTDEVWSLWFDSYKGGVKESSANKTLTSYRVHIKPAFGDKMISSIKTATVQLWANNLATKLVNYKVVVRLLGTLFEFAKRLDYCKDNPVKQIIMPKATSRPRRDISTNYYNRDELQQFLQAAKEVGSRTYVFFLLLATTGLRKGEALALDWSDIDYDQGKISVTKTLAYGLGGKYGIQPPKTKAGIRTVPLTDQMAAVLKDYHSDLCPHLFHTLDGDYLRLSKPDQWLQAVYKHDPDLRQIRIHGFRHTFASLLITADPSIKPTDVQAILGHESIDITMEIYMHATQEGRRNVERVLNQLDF
Briefly: EMSA; stable with P'12 arm DNA; unstable without; room temperature, polydIdC. To be noted: tags: expressed from pET15b; label: Cy3 on bottom strand. As for the experimental part: 5′ Cy3 end-labelled synthetic oligonucleotides (HPLC purified) were obtained from Eurofins. Labelled double strand DNA substrates were prepared by hybridization of complementary oligonucleotides (Table 7C) in 10 mM Tris pH 7.5, 50 mM NaCl by incubating the samples 5 min at 95° C. in a thermal cycler (Biorad) and decreasing the temperature of 1.5° C./min until it reaches 25° C. Binding reactions (20 μl) were performed with 0.87 pmol of labelled core- or arm-type DNA and 4.48 pmol of unlabelled arm- or core-type DNA in buffer containing 25 mM Tris pH 8, 75 mM NaCl, 10% glycerol, 0.5 mM DTT, 0.5 mM EDTA, 1 μg polydIdC (Sigma), 0.1 mg/ml BSA. The protein was added, the reaction performed at room temperature for 20 min and samples were loaded onto a non-denaturing 7.5% polyacrylamide gel (Mini-PROTEAN TGX, Biorad). The gels were run at 4° C., 75V for 2 h.
However, if DNA containing the P′1-P′2 arm-binding sites was added to the reaction, the inhibition was removed and ^λInt was able to stably bind to the core-binding sites. […]
On the technique in general: Mobility shift assays separate free from complexed probe on a gel.

Data set [2] addresses T1, mv4Int (369 aa integrase). The data set can be described thus: EMSA; with arm DNA; complex III increases with mv4Int. To be noted: tags: expressed from pET15b; label: Cy3 on bottom strand. The protocol: However, if DNA containing the P′1-P′2 arm-binding sites was added to the reaction, the inhibition was removed and ^λInt was able to stably bind to the core-binding sites. To determine if ^mv4Int N-ter domain also exerts such inhibitory effect on its C-ter domain, they compared the ^mv4Int binding to a labelled 35-bp dsDNA containing the 21-bp core-attP region (Table 7C), in the presence or absence of unlabelled dsDNA containing the P′1 and P′2 arm-type binding sites (Table 7C). ^mv4Int binding to the COC′ sequence appeared quite unstable, as only faint bands and strong background smear can be observed (lane 3, FIG. 8A). Addition of a 28-bp dsDNA containing the P′12 sequences (Table 7C) greatly stimulates and stabilizes ^mv4Int binding to the core-attP sequence and led to the formation of three complexes (lane 4, FIG. 8A). […] To ensure that the stabilization effect was due to the binding of the N-ter domain of ^mv4Int to the arm-type binding site, the 28-pb P′12 dsDNA was replaced by a DNA duplex of 40 pb containing the P′1 and P′2 sites (Table 7C). A stabilization effect on the binding to the COC′ sequence was observed (lane 5, FIG. 8A), with the formation of two complexes (II* and III*) of mobility lower than the complexes observed with the 28-bp P′12 fragment. […]

B1: COC' WT core-attP 35 bp (dsDNA)
DNA 1: GGTATTGGAAAGAACCTGTACTCTCCTTGCGTAAC
DNA 2: GTTACGCAAGGAGAGTACAGGTTCTTTCCAATACC
As for B1, in data set [1], the binding result is recorded as “binds”.

B2: BOB' WT attB 35 bp (dsDNA)
DNA 1: GGTATTGTTCAAATCCTGTACTCTCCTTGCGTAAC
DNA 2: GTTACGCAAGGAGAGTACAGGATTTGAACAATACC
On to B2, for which the binding result in data set [2] was “binds”.
